One data set concerns the target DDX3X N-IDR (human, UniProt O00571 1-132). In words: NMR; 200 mM KCl; EMSA: 20 mM K-phosphate pH 7.0, 125 mM KCl, 1 mM DTT, 0.005% Tween-20, 10% glycerol (1 mM ATP-Mg for MBP-FL/Core-C), gel at room temperature; ITC: 20 mM K-phosphate pH 7.0, 50 mM KCl, 25 C; NMR: 200 mM KCl (also 120 mM), 10 C, 50 uM. As to conditions: protein: recombinant; tags: His6-SUMO tag cleaved (Ulp1); label: 5'-FAM in EMSA; G4, heterogeneous.

For a further data set, the target named is MBP-FL DDX3X (human, UniProt O00571 1-662). The data set is described as follows: EMSA; 1 mM ATP-Mg; peer review file prints 665; EMSA: 20 mM K-phosphate pH 7.0, 125 mM KCl, 1 mM DTT, 0.005% Tween-20, 10% glycerol (1 mM ATP-Mg for MBP-FL/Core-C), gel at room temperature; ITC: 20 mM K-phosphate pH 7.0, 50 mM KCl, 25 C; NMR: 200 mM KCl (also 120 mM), 10 C, 50 uM. Conditions: protein: recombinant; tags: N-terminal His6-MBP; chain copies: 2; label: 3'-FAM; blunt, self-complementary.
Sequence of MBP-FL DDX3X (O00571 whole entry): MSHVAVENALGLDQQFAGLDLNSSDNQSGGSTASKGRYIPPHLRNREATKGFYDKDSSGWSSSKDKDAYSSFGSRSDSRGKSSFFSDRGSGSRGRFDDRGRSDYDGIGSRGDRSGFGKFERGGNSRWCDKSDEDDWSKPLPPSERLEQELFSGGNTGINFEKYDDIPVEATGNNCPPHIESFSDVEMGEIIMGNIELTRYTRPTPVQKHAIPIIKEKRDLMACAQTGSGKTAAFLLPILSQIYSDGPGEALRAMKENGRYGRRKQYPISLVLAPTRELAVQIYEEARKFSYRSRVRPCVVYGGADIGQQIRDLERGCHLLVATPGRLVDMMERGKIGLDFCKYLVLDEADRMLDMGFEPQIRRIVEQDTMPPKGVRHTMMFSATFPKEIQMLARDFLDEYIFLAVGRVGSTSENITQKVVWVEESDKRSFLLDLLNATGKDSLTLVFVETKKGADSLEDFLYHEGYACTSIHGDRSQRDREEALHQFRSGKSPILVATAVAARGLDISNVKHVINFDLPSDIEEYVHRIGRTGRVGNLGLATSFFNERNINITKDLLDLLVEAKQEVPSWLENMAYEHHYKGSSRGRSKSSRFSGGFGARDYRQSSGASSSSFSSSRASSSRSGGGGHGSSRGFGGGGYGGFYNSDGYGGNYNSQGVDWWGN

Sequence of DDX3X N-IDR (O00571 1-132): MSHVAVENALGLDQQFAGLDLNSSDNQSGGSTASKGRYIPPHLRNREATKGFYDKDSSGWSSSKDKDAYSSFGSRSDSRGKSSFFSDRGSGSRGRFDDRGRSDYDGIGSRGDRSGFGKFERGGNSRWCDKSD

B1: ODC1 279-303 (structured_RNA)
RNA: GCUGACGGGCGCGGCGGGGGCGGCC
Take B1: the binding result with DDX3X N-IDR was “binds”.

B2: GC-14mer dsRNA-FAM (dsRNA)
RNA 1: GGGCGGGCCCGCCC
RNA 2: GGGCGGGCCCGCCC
For B2, in the data set with MBP-FL DDX3X, the dissociation constant (Kd) came to 655 ± 31 nM.
